Assays:
[1] = cited from earlier work
[2] = Stability and bleaching performance of SOx in HDL laundry wash conditions
Source text: In this Example, methods to determine the stability and bleaching performance of SOx (produced as described above) in AATCC liquid detergent laundry wash conditions are described. In these experiments, AATCC standard detergent (American Association of Textile Chemists and Colorists Heavy Duty Liquid Detergent Version 2003 without brightener; key components include linear alkane sulfonate, alcohol ethoxylate, propanediol, citric acid, fatty acid, castic soda and water; Testfabrics) was used.
Three bleachable cotton swatches with juice (STC CFT CS-15), wine (STC CFT CS-3), and tea (STC CFT BC-3) were used. The swatches were cut into 15 mm circles with a textile punch (Model B equipped with a ⅝″ die cutter; Model 93046; NAEF).
Single swatch disks were placed into each well of a 24-well microplate (Costar 3526). One (1) ml of washing solution pH 8, containing per liter, 1.5 ml AATCC HDL detergent, 75-100 mM sorbitol, 6 gpg hardness (diluted from stock 15000 gpg hardness solution containing 1.735 M calcium chloride and 0.67 M magnesium chloride), and 0.05% TAED (tetraacetylethylenediamine, Fluka) was added to each well. Five to fifty (5-50 ul) microliters of partially purified sorbitol oxidase or sorbitol oxidase obtain from a late fermentation run (108 hr EFT “effective fermentation time”) produced as described in Examples 1 and 2, were added with a positive displacement pipette to 3-8 wells in one column. The control wells contained no enzyme. The microplate was covered with a plastic lid and aluminum foil and incubated at 37° C. with 100 rpm gentle rotation for 14 hr. […]
One hundred microliters (100 ul) of 0.1 mM sodium carbonate were added to each well to elevate the pH to 10. […] The disks were inspected visually and then analyzed with a Reflectometer CR-200 (Minolta) calibrated on a standard white tile. The average L values were calculated as was the percent soil release (% SR=100%×(Final reflectance-Initial reflectance)/(Reflectance of a white standard-Initial reflectance). Graphs showing the results of these experiments are provided in FIGS. 5-8.

[3] = Substrate range study: SCO6147 SOx activity on D-sorbitol versus D-xylitol; assay type: biochemical, Streptomyces lividans; settings: SOx transformed in S. lividans; substrates 50 mM, pH 7.0
Protocol: Sorbitol oxidase obtained using the methods described in Example 1, was tested for finding its activity with various polyol substrates. All substrates used in the assay were 50 mM in 10 mM phosphate buffer pH 7.0. The relative activity using sorbitol as (++++++=100%) is shown below in Table 3.

B1: sorbitol oxidase from Streptomyces species H-7775: sorbitol oxidase of Streptomyces species H-7775, Genbank AB000519, 420 amino acids (protein)
chain: MTPAEKNWAGNITFGAKRLCVPRSVRELRETVAASGAVRPLGTRHSFNTVADTSGDHVSLAGLPRVVDIDVPGRAVSLSAGLRFGEFAAELHARGLALANLGSLPHISVAGAVATGTHGSGVGNRSLAGAVRALSLVTADGETRTLRRTDEDFAGAVVSLGALGVVTSLELDLVPAFEVRQWVYEDLPEATLAARFDEVMSAAYSVSVFTDWRPGPVGQVWLKQRVGDEGARSVMPAEWLGARLADGPRHPVPGMPAGNCTAQQGVPGPWHERLPHFRMEFTPSNGDELQSEYFVARADAVAAYEALARLRDRIAPVLQVSELRTVAADDLWLSPAHGRDSVAFHFTWVPDAAAVAPVAGAIEEALAPFGARPHWGKVFSTAPEVLRTLYPRYADFEELVGRHDPEGTFRNAFLDRYFRR
modifications: Streptomyces H-7775
notes: sorbitol oxidase of Streptomyces species H-7775, Genbank AB000519, 420 amino acids
pH range in which enzyme is stable ([1]; 24 hours at 30° C.): 7.5-10 pH
optimum temperature ([1]; at pH 7.5): 50 °C

B2: sorbitol oxidase: partially purified sorbitol oxidase or fermentation broth cell lysate (108 hr EFT) used for biobleaching (protein)
chain: B1 chain
modifications: Streptomyces H-7775
notes: partially purified sorbitol oxidase or fermentation broth cell lysate (108 hr EFT) used for biobleaching
stability in typical liquid detergent system ([2]; AATCC HDL detergent, pH 8, 37° C., 14 hr): stable
hydrogen peroxide production in detergent ([2]; in presence of sorbitol mixed with detergent and atmospheric oxygen): able to produce effective concentration of hydrogen peroxide
bleaching of colored stains ([2]; with bleach booster TAED, blueberry, tea and wine stains, FIGS. 5-8): able to help bleach

B3: POx of SEQ ID NO:4: sorbitol oxidase of Streptomyces lividans, gene identified from S. coelicolor SCO6147, expressed intracellularly in S. lividans g3s3 (protein)
chain: MGDITVTNWAGNITYTAKELLRPHSLDALRALVADSARVRVLGSGHSFNEIAEPGDGGVLLSLAGLPSVVDVDTAARTVRVGGGVRYAELARVVHARGLALPNMASLPHISVAGSVATGTHGSGVGNGSLASVVREVELVTADGSTVVIARGDERFGGAVTSLGALGVVTSLTLDLEPAYEMEQHVFTELPLAGLDPATFETVMAAAYSVSLFTDWRAPGFRQVWLKRRTDRPLDGFPYAAPAAEKMHPVPGMPAVNCTEQFGVPGPWHERLPHFRAEFTPSSGAELQSEYLMPREHALAALHAMDAIRETLAPVLQTCEIRTVAADAQWLSPAYGRDTVAAHFTWVEDTAAVLPVVRRLEEALVPFAARPHWGKVFTVPAGELRALYPRLADFGALAGALDPAGKFTNAFVRGVLAG
modifications: Streptomyces lividans
notes: sorbitol oxidase of Streptomyces lividans, gene identified from S. coelicolor SCO6147, expressed intracellularly in S. lividans g3s3
activity on D-sorbitol relative to D-xylitol [3]: 2.1 times

— US7919295B2, “Polyol oxidases” (Danisco US Inc., priority 2006, dated 2011)
